Test system: Human bone marrow-derived MSCs
Test: MSC proliferation (crystal violet cell abundance)
Format: cell-based
Experimental: Human bone marrow-derived MSCs obtained from American Type Culture Collection (ATCC) were cultured in normal media, which consists of Alpha-Minimum Essential Medium (α-MEM) (Lonza) with 10% (v/v) FBS (Life Technologies) and 2.4 mM L-glutamine (Lonza), at 37° C. in a humidified normoxic incubator up to a maximum of 10 population doublings. Where indicated, the normal media was supplemented with 15 ng/mL IGF-1 (Life Technologies) and/or […] bFGF (Life Technologies), equivalent to the growth factor concentrations in the ATCC-recommended media. Cells were passaged once they reach 70-80% confluence.
Where indicated, tissue culture plastic wells were coated with 20 μg/mL recombinant human tropoelastin (Elastagen) or 2 μg/mL fibronectin (Sigma-Aldrich®) in PBS (10 mM phosphate, 150 mM NaCl, pH 7.4) at 4° C. overnight. The protein solution was removed, and wells were washed three times with PBS to remove unbound protein prior to cell seeding.
[…] To prevent protein adhesion on the tissue culture substrate, wells were pre-incubated with normal media for 5 hours to enable surface blocking by serum proteins prior to cell seeding in supplemented media.
Sub-confluent flasks of MSCs were treated with 0.05% (v/v) trypsin-EDTA (Sigma-Aldrich®) at 37° C. for 5 min to lift off adherent cells from the culture vessel. Trypsin was neutralized with two volumes of serum-containing growth media. Cells were centrifuged at 270 g for 5 min and resuspended in the required media. Cells were seeded at a density of 5000 cells/cm^2 on bare or protein-coated tissue culture plastic wells, in normal or supplemented media. Media was changed every 2 days. After specific time points, cells were fixed with 3% (v/v) formaldehyde at room temperature for 20 min, washed with PBS, then stained with 0.1% (w/v) crystal violet in 0.2 M MES buffer for 1 hour. Excess stain was washed off four times with reverse osmosis water. The retained stain was solubilized with 10% (v/v) acetic acid and sample absorbance values indicative of cell abundance were read at 570 nm. Sample absorbance values were subtracted by baseline values (corresponding to cell numbers in serum-free media, or cell numbers on day 1 post-seeding) and expressed as a fraction of the highest absorbance among all samples on day 7 post-seeding.

[1] = tropoelastin substrate, normal media
[2] = tropoelastin substrate, unsupplemented 7% FBS media, 7 days

B1: recombinant human tropoelastin (Elastagen) (ligand, UniProt P15502-2 27-724, looked up)
chain: GGVPGAIPGGVPGGVFYPGAGLGALGGGALGPGGKPLKPVPGGLAGAGLGAGLGAFPAVTFPGALVPGGVADAAAAYKAAKAGAGLGGVPGVGGLGVSAGAVVPQPGAGVKPGKVPGVGLPGVYPGGVLPGARFPGVGVLPGVPTGAGVKPKAPGVGGAFAGIPGVGPFGGPQPGVPLGYPIKAPKLPGGYGLPYTTGKLPYGYGPGGVAGAAGKAGYPTGTGVGPQAAAAAAAKAAAKFGAGAAGVLPGVGGAGVPGVPGAIPGIGGIAGVGTPAAAAAAAAAAKAAKYGAAAGLVPGGPGFGPGVVGVPGAGVPGVGVPGAGIPVVPGAGIPGAAVPGVVSPEAAAKAAAKAAKYGARPGVGVGGIPTYGVGAGGFPGFGVGVGGIPGVAGVPGVGGVPGVGGVPGVGISPEAQAAAAAKAAKYGVGTPAAAAAKAAAKAAQFGLVPGVGVAPGVGVAPGVGVAPGVGLAPGVGVAPGVGVAPGVGVAPGIGPGGVAAAAKSAAKVAAKAQLRAAAGLGAGIPGLGVGVGVPGLGVGAGVPGLGVGAGVPGFGAVPGALAAAKAAKYGAAVPGVLGGLGALGGVGIPGGVVGAGPAAAAAAAKAAAKAAQFGLVGAAGLGGLGVGGLGVPGVGGLGGIPPAAAAKAAKYGAAGLGGVLGGAGQFPLGGVAARPGFGLSPIFPGGACLGKACGRKRK
increase in cell proliferation compared to normal media or media with IGF-1 (1 μg/mL in solution, 7 days): 18±5% | increase in cell proliferation compared to normal media or media with IGF-1 (20 μg/mL in solution, 7 days): 69±7% | improved MSC proliferation over substrate-bound tropoelastin (20 μg/mL in solution, 7 days post-seeding): 80±8% | increase in MSC proliferation by substrate-bound tropoelastin over TCP (7% FBS media with IGF-1, 7 days): 49±1% | increase in MSC proliferation by substrate-bound tropoelastin over TCP (7% FBS media with bFGF, 7 days): 40±3% | increase in MSC proliferation by substrate-bound tropoelastin over TCP (7% FBS media with both growth factors, 7 days): 29±3% | increase in MSC proliferation by substrate-bound tropoelastin over TCP (7% FBS, unsupplemented media, 7 days): 97±19% | tropoelastin-mediated proliferative increase over bare TCP (10% FBS media with IGF-1, 7 days): 41±1% | tropoelastin-mediated proliferative increase over bare TCP (10% FBS media with IGF-1 and bFGF, 7 days): 16±3% | tropoelastin-mediated proliferative increase over bare TCP (10% FBS media with bFGF, 7 days): 16±2% | serum reduction at which cell expansion remained unaffected (7 days post-seeding, substrate-bound tropoelastin without growth factors, or IGF-1 and bFGF in media on TCP): ≤ 40% | serum reduction at which MSC numbers significantly decreased (coated surface, until 3 days post-seeding): 80% | increase in cell numbers on tropoelastin-coated TCP over bare TCP (normal 10% (v/v) serum media, 7 days): 39±3% | MSC propagation relative to bFGF (soluble 5 μg/mL, until 7 days post-seeding): comparable to bFGF | MSC expansion relative to media containing both IGF-1 and bFGF (soluble 20 μg/mL, full serum media): equivalent to that in media containing both growth factors | more potent than bFGF for MSC propagation (soluble 20 μg/mL, until 7 days post-seeding): 18±5% | MSC expansion surpassing bFGF (soluble, at and above 1 μg/mL, 3 days post-seeding): up to 74±2% | improved MSC proliferation compared to IGF-1 and bFGF in tandem (substrate-bound tropoelastin, 40% decrease in serum (6% FBS), 7 days): 23±3% | serum reduction tolerated without deleterious effects to proliferation (surface-bound tropoelastin with growth factors in media, after 5 days post-seeding): ≤ 20% | serum reduction allowed (surface-bound tropoelastin with growth factors in media, until 5 days post-seeding): 40% | proliferation compared to cells on TCP in media with bFGF [1]: similarly | proliferation more than cells on TCP in media with IGF-1 [1]: 36±3% | decreased expansion compared to cells on TCP in media containing both IGF-1 and bFGF (tropoelastin substrate, normal media, no additional factors): 14±2% | abundance compared to cells on TCP in media with both growth factors [2]: equivalent in abundance | greater expansion relative to cells on TCP in media with IGF-1 [2]: 59±15% | greater expansion relative to cells on TCP in media with bFGF [2]: 37±13%

From patent publication US20190275087A1, “EXPANSION AND DIFFERENTIATION OF STEM CELLS” (Allergan Pharmaceuticals International Limited, priority 2018, published 2019)
